Data taken from PMC6697640.

Target: 3X N-terminal FLAG-tagged PTEN (phosphatase and tensin homolog), wild type (UniProt P60484)
Experiment: native gel or EMSA; co-IPs from total lysate of BT-549-PTEN cells followed by Western blot under non-denaturing conditions; dimers seen in the input lane and in the co-immunoprecipitate

“3X N-terminal FLAG-tagged PTEN (phosphatase and tensin homolog), wild type, P60484 1-403 (enzyme; other documents disagree on this pair)” showed a stoichiometry N of 2.
